Assay results from publication PMC6289461, “Mek1 coordinates meiotic progression with DNA break repair by directly phosphorylating and inhibiting the yeast pachytene exit regulator Ndt80”.

T1: 6xHis-Ndt80 5D DBD (Saccharomyces cerevisiae, UniProt P38830 1-340, S24D;S205D;T211D;S327D;S329D)
T1 sequence: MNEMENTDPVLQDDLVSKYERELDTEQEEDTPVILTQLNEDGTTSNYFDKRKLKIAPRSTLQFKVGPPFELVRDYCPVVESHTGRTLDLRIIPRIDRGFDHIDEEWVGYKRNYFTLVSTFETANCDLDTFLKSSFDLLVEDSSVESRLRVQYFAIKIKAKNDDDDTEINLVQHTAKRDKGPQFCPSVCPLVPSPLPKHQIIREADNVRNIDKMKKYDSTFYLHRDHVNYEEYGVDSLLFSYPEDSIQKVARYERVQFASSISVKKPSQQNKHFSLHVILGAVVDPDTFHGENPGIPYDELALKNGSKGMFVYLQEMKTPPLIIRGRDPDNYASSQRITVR


Biological target: T1, 6xHis-Ndt80 5D DBD
Assay: EMSA; 50 nM DBD, 50 nM duplex; EMSA: 10 mM Tris-HCl pH 7.5, 40 mM NaCl, 4 mM MgCl2, 6% glycerol, 10 mg/ml BSA, 10 ug/ml sonicated salmon sperm DNA; 20 ul, room temperature, 30 min; 6% PAGE in 0.5X TBE
Details: protein: recombinant, tags: N-terminal 6xHis (pET-28a), blunt

Binder	binding result (label: 5' Cy3 on strand 1)	binding result (label: 5' Cy5 on strand 1)
Cy3-MSE (SPS4 MSE duplex) (dsDNA) DNA 1: ATTGACGCGCGCCACAAAAACGTATCATT DNA 2: AATGATACGTTTTTGTGGCGCGCGTCAAT	no binding	–
Cy5-Scr duplex (dsDNA) DNA 1: ATTGACGCGGCTTCATCTCACGTATCATT DNA 2: AATGATACGTGAGATGAAGCCGCGTCAAT	–	no binding
